Test results as given in patent US20050118674A1, “Engineering of Controlled Deamidation Rates in Peptides, Proteins, and Similar Structures” (priority 2003, published 2005).

Experiment: First-order nonenzymatic deamidation of pentapeptides in Tris buffer
Assay type: physicochemical
Conditions: 0.15 M Tris HCl; for First-Order Deamidation Halftimes of GlyXxxAsnYyyGly: pH 7.4, 37.0° C., Asn pentapeptides; for First-Order Deamidation Halftimes of GlyXxxGlnYyyGly: pH 7.4, 37.0 ° C., Gln pentapeptides, 52 values measured, rest derived from surface fitting
How it was run: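 Pentapeptides containing Asn or Gln in varied flanking sequences incubated at 37° C., pH 7.4, 0.15 M Tris buffer; first-order deamidation rates measured. Some Asn values estimated from remaining data; many Gln values derived from surface fitting rather than measured.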

Substance	First-Order Deamidation Halftimes of GlyXxxAsnYyyGly [days]	First-Order Deamidation Halftimes of GlyXxxGlnYyyGly [days]
GlyGlyAsnPheGly (GGNFG; printed: GlyGlyAsnPheGly)	64.0	–
GlyGlyAsnProGly (GGNPG; printed: GlyGlyAsnProGly)	7170	–
GlyGlyAsnSerGly (GGNSG; printed: GlyGlyAsnSerGly)	11.8	–
GlyGlyAsnThrGly (GGNTG; printed: GlyGlyAsnThrGly)	39.8	–
GlyGlyAsnTrpGly (GGNWG; printed: GlyGlyAsnTrpGly)	77.1	–
GlyGlyAsnTyrGly (GGNYG; printed: GlyGlyAsnTyrGly)	63.6	–
GlyGlyAsnValGly (GGNVG; printed: GlyGlyAsnValGly)	224	–
GlyGlyGlnAlaGly (GGQAG; printed: GlyGlyGlnAlaGly)	–	5900
GlyGlyGlnArgGly (GGQRG; printed: GlyGlyGlnArgGly)	–	7200
GlyGlyGlnAspGly (GGQDG; printed: GlyGlyGlnAspGly)	–	7600
GlyGlyGlnCysGly (GGQCG; printed: GlyGlyGlnCysGly)	–	1900
GlyGlyGlnGluGly (GGQEG; printed: GlyGlyGlnGluGly)	–	7300
GlyGlyGlnGlyGly (GGQGG; printed: GlyGlyGlnGlyGly)	–	650
GlyGlyGlnHisGly (GGQHG; printed: GlyGlyGlnHisGly)	–	5900
GlyGlyGlnIleGly (GGQIG; printed: GlyGlyGlnIleGly)	–	6300
GlyGlyGlnLeuGly (GGQLG; printed: GlyGlyGlnLeuGly)	–	6200
GlyGlyGlnLysGly (GGQKG; printed: GlyGlyGlnLysGly)	–	6000
GlyGlyGlnMetGly (GGQMG; printed: GlyGlyGlnMetGly)	–	4500
GlyGlyGlnPheGly (GGQFG; printed: GlyGlyGlnPheGly)	–	7600
GlyGlyGlnProGly (GGQPG; printed: GlyGlyGlnProGly)	–	10000
GlyGlyGlnSerGly (GGQSG; printed: GlyGlyGlnSerGly)	–	5700
GlyGlyGlnThrGly (GGQTG; printed: GlyGlyGlnThrGly)	–	5200
GlyGlyGlnTrpGly (GGQWG; printed: GlyGlyGlnTrpGly)	–	15000
GlyGlyGlnTyrGly (GGQYG; printed: GlyGlyGlnTyrGly)	–	12000
GlyGlyGlnValGly (GGQVG; printed: GlyGlyGlnValGly)	–	6500
GlyHisAsnAlaGly (GHNAG; printed: GlyHisAsnAlaGly)	24.6	–
GlyHisAsnAmCysGly	33.8	–

Substance	First-Order Deamidation Halftimes of GlyXxxAsnYyyGly [days]	First-Order Deamidation Halftimes of GlyXxxGlnYyyGly [days]
GlyHisAsnArgGly (GHNRG; printed: GlyHisAsnArgGly)	48.9	–
GlyHisAsnAspGly (GHNDG; printed: GlyHisAsnAspGly)	31.2	–
GlyHisAsnCysGly (GHNCG; printed: GlyHisAsnCysGly)	43.9	–
GlyHisAsnGluGly (GHNEG; printed: GlyHisAsnGluGly)	69.4	–
GlyHisAsnGlyGly (GHNGG; printed: GlyHisAsnGlyGly)	1.14	–
GlyHisAsnHisGly (GHNHG; printed: GlyHisAsnHisGly)	10.7	–
GlyHisAsnIleGly (GHNIG; printed: GlyHisAsnIleGly)	327	–
GlyHisAsnLeuGly (GHNLG; printed: GlyHisAsnLeuGly)	116	–
GlyHisAsnLysGly (GHNKG; printed: GlyHisAsnLysGly)	50.2	–
GlyHisAsnMetGly (GHNMG; printed: GlyHisAsnMetGly)	63.1	–
GlyHisAsnPheGly (GHNFG; printed: GlyHisAsnPheGly)	72.1	–
GlyHisAsnProGly (GHNPG; printed: GlyHisAsnProGly)	8440	–
GlyHisAsnSerGly (GHNSG; printed: GlyHisAsnSerGly)	15.7	–
GlyHisAsnThrGly (GHNTG; printed: GlyHisAsnThrGly)	47.2	–
GlyHisAsnTrpGly (GHNWG; printed: GlyHisAsnTrpGly)	95.4	–
GlyHisAsnTyrGly (GHNYG; printed: GlyHisAsnTyrGly)	82.3	–
GlyHisAsnValGly (GHNVG; printed: GlyHisAsnValGly)	247	–
GlyHisGlnAlaGly (GHQAG; printed: GlyHisGlnAlaGly)	–	7200
GlyHisGlnArgGly (GHQRG; printed: GlyHisGlnArgGly)	–	4500
GlyHisGlnAspGly (GHQDG; printed: GlyHisGlnAspGly)	–	5600
GlyHisGlnCysGly (GHQCG; printed: GlyHisGlnCysGly)	–	2200
GlyHisGlnGluGly (GHQEG; printed: GlyHisGlnGluGly)	–	5800
GlyHisGlnGlyGly (GHQGG; printed: GlyHisGlnGlyGly)	–	850
GlyHisGlnHisGly (GHQHG; printed: GlyHisGlnHisGly)	–	7200
GlyHisGlnIleGly (GHQIG; printed: GlyHisGlnIleGly)	–	6700
GlyHisGlnLeuGly (GHQLG; printed: GlyHisGlnLeuGly)	–	6600
GlyHisGlnLysGly (GHQKG; printed: GlyHisGlnLysGly)	–	4000

Substance	First-Order Deamidation Halftimes of GlyXxxAsnYyyGly [days]	First-Order Deamidation Halftimes of GlyXxxGlnYyyGly [days]
GlyHisGlnMetGly (GHQMG; printed: GlyHisGlnMetGly)	–	5200
GlyHisGlnPheGly (GHQFG; printed: GlyHisGlnPheGly)	–	8600
GlyHisGlnProGly (GHQPG; printed: GlyHisGlnProGly)	–	11000
GlyHisGlnSerGly (GHQSG; printed: GlyHisGlnSerGly)	–	6300
GlyHisGlnThrGly (GHQTG; printed: GlyHisGlnThrGly)	–	5500
GlyHisGlnTrpGly (GHQWG; printed: GlyHisGlnTrpGly)	–	18000
GlyHisGlnTyrGly (GHQYG; printed: GlyHisGlnTyrGly)	–	14000
GlyHisGlnValGly (GHQVG; printed: GlyHisGlnValGly)	–	6800
GlyIleAsnAlaGly (GINAG; printed: GlyIleAsnAlaGly)	25.9	–
GlyIleAsnAmCysGly	33.0	–
GlyIleAsnArgGly (GINRG; printed: GlyIleAsnArgGly)	66.4	–
GlyIleAsnAspGly (GINDG; printed: GlyIleAsnAspGly)	33.8	–
GlyIleAsnCysGly (GINCG; printed: GlyIleAsnCysGly)	52.7	–
GlyIleAsnGluGly (GINEG; printed: GlyIleAsnGluGly)	58.6	–
GlyIleAsnGlyGly (GINGG; printed: GlyIleAsnGlyGly)	1.26	–
GlyIleAsnHisGly (GINHG; printed: GlyIleAsnHisGly)	11.5	–
GlyIleAsnIleGly (GINIG; printed: GlyIleAsnIleGly)	384	–
GlyIleAsnLeuGly (GINLG; printed: GlyIleAsnLeuGly)	154	–
GlyIleAsnLysGly (GINKG; printed: GlyIleAsnLysGly)	64.4	–
GlyIleAsnMetGly (GINMG; printed: GlyIleAsnMetGly)	58.8	–
GlyIleAsnPheGly (GINFG; printed: GlyIleAsnPheGly)	61.5	–
GlyIleAsnProGly (GINPG; printed: GlyIleAsnProGly)	11600	–
GlyIleAsnSerGly (GINSG; printed: GlyIleAsnSerGly)	14.5	–
GlyIleAsnThrGly (GINTG; printed: GlyIleAsnThrGly)	46.3	–
GlyIleAsnTrpGly (GINWG; printed: GlyIleAsnTrpGly)	86.7	–
GlyIleAsnTyrGly (GINYG; printed: GlyIleAsnTyrGly)	79.3	–
